B4: FLrArc-7A, full-length rat Arc with residues 113-119 mutated to Ala (natural protein, UniProt Q63053 1-396, looked up)
chain: MELDHMTTGGLHAYPAPRGGPAAKPNVILQIGKCRAEMLEHVRRTHRHLLTEVSKQVERELKGLHRSVGKLENNLDGYVPTGDSQRWKKSIKACLCRCQETIANLERWVKREAAAAAAAFYRLERWADRLESMGGKYPVGSEPARHTVSVGVGGPEPYCQEADGYDYTVSPYAITPPPAAGELPEQESVGAQQYQSWVPGEDGQPSPGVDTQIFEDPREFLSHLEEYLRQVGGSEEYWLSQIQNHMNGPAKKWWEFKQGSVKNWVEFKKEFLQYSEGTLSREAIQRELDLPQKQGEPLDQFLWRKRDLYQTLYVDAEEEEIIQYVVGTLQPKFKRFLRHPLPKTLEQLIQRGMEVQDGLEQAAEPSVTPLPTEDETEALTPALTSESVASDRTQPE
notes: Expressed from pHMGWA as His6-MBP fusion; Dimer by SAXS; also called poly-Ala rArc mutant; FLArc-7A; source: E. coli BL21(DE3)-RIPL, purified (details in S1 Protocol)

Data set [1] has as its target T1, human Arc C-terminal domain (hArc-CTD) (human, UniProt Q7LC44).
T1 construct: His tag with a linker holding a TEV site; kept in the pull-down; not shown: His6, N-terminal, kept
Description: SEC-SAXS; hArc-CTD alone and with Nb, BM29 beamline (ESRF), HPLC mode. The note with it: both partners purified.

In data set [2] the target is FLrArc-7A, full-length rat Arc with residues 113-119 mutated to Ala (rat, UniProt Q63053, 113-119 MHVWREV to poly-Ala).
Data set [3] deals with the molecule itself. Description: SEC-SAXS; FLrArc-7A alone and with Nb, SWING beamline, HPLC mode; 20 mM HEPES, 150 mM NaCl, 0.5 mM TCEP, pH 7.5 (rArc+H11 in 20 mM Tris, 150 mM NaCl, pH 7.4).
Data set [4] deals with rat Arc C-terminal domain as found in the crystals grown from FLrArc-7A (rArc-CTD) (rat, UniProt Q63053).
Data set [5] deals with the molecule itself. Description: SEC; analytical SEC; 2 nmol FLhArc (capsid-containing) with 1.5-fold molar excess of Nb; Superdex 200 Increase 10/300 GL; PBS; fractions on SDS-PAGE.
For data set [6], the target named is B4. The data set is described as follows: ITC; 2 mM Stg peptide injected into 198 μM FLrArc-7A; 20 mM Tris-HCl pH 7.4, 150 mM NaCl; 1:1 binding model. The note with it: both partners purified.
Data set [7] concerns the molecule itself. The data set is described as follows: SEC-SAXS; MBP-2rNT alone, SWING beamline, HPLC mode.

The source of these data is PMC9173642 (PLoS ONE, 2022).

B1: NbArc-B12 (VHH)
VHH: EVQLLESGGGLVQAGGSLRLSCVASRGPFTTVTMGWYRQTPGKQRESVAHITSDGRANYADSVKGRFTISKDNATNTVYLQMNNLKREDTAVYYCNTIVWPRGPWGQGTQVTVSS
notes: From NanoTag Technologies, His6-TEV-Nb in pNT1433; also called sdAb B12; source: E. coli BL21(DE3), purified (NiNTA, TEV proteolysis, SEC); not shown: His6, N-terminal, cleaved
Turning to B1, in data set [1], the “stoichiometry N” value was determined as 1.

B2: E5 [NbArc-E5] (VHH)
VHH: EVQLQESGGGLVQAGGSLRLSCAASGSIFSGNAMGWYRQAPGKQREVVAVISAGNSSNYVDSVKGRFTISRDNAKNTVYLQMNSLKPEDTAVYYCNVVKRGPQWGMEWGKGTLVTVSS
As to B2, the binding result in data set [2] is “binds”.

B3: NbArc-E5 (VHH)
VHH: EVQLQESGGGLVQAGGSLRLSCAASGSIFSGNAMGWYRQAPGKQREVVAVISAGNSSNYVDSVKGRFTISRDNAKNTVYLQMNSLKPEDTAVYYCNVVKRGPQWGMEWGKGTLVTVSS
notes: From NanoTag Technologies, His6-TEV-Nb in pNT1433; also called Nb E5; sdAb E5; source: E. coli BL21(DE3), purified (NiNTA, TEV proteolysis, SEC); not shown: His6, N-terminal, cleaved
Regarding B3, the “stoichiometry N” value in data set [1] amounted to 1.

Take B4: in data set [3], the “stoichiometry N” value stood at 2.

B5: NbArc-H11 (VHH)
VHH: EVQLLESGGGLVQAGDSLRLSCAASGRTFSAYAMGWFRQAPGKEREFVAAISWSGNSTYYADSVKGRFTISRDNAKNTVYLQMNSLKPEDTAIYYCAARKPMYRVDISKGQNYDYWGQGTQVTVSS
notes: From NanoTag Technologies, His6-TEV-Nb in pNT1433; long CDR3 with a P-x-Y motif (Pro103, Tyr105); also called Nb H11; sdAb H11; source: E. coli BL21(DE3), purified (NiNTA, TEV proteolysis, SEC); not shown: His6, N-terminal, cleaved
Consider B5, for which the “stoichiometry N” value in data set [1] is 1.

B6: C11 [NbArc-C11] (VHH)
VHH: EVQLVESGGGLVQAGGSLRLSCAASGRTSGALNVAWYRQATGKEREYVARLWWNDGTTYYSDSVKGRFTISSDNAKKIVYLQMNRLKPDDTAIYYCAVRTPSSQTLYWGQGTQVTVSS
Take B6: the binding result in data set [4] was “binds”.

B7: NbArc-C11 (VHH)
VHH: EVQLVESGGGLVQAGGSLRLSCAASGRTSGALNVAWYRQATGKEREYVARLWWNDGTTYYSDSVKGRFTISSDNAKKIVYLQMNRLKPDDTAIYYCAVRTPSSQTLYWGQGTQVTVSS
notes: From NanoTag Technologies, His6-TEV-Nb in pNT1433; also called Nb C11; sdAb C11; source: E. coli BL21(DE3), purified (NiNTA, TEV proteolysis, SEC); not shown: His6, N-terminal, cleaved
Consider B7, for which, in data set [1], the “stoichiometry N” value came out at 1.

B8: NbArc-D4 (VHH)
VHH: EVQLVESGGGLVQAGGSLRLSCVASRGPFTTVTMGWYRQTPGRGRELVATINGGGGTRYADSVKGRFTISTDNAKNTVSLQMNSLKPEDTAVYYCNNDGYEWGVKKTYWGQGTQVTVSS
notes: From NanoTag Technologies, His6-TEV-Nb in pNT1433; also called sdAb D4; source: E. coli BL21(DE3), purified (NiNTA, TEV proteolysis, SEC); not shown: His6, N-terminal, cleaved
Consider B8, for which the “stoichiometry N” value in data set [1] was found to be 1.

B9: full-length human Arc (FLhArc), capsid-containing preparation (natural protein, UniProt Q7LC44 1-396, looked up)
chain: MELDHRTSGGLHAYPGPRGGQVAKPNVILQIGKCRAEMLEHVRRTHRHLLAEVSKQVERELKGLHRSVGKLESNLDGYVPTSDSQRWKKSIKACLCRCQETIANLERWVKREMHVWREVFYRLERWADRLESTGGKYPVGSESARHTVSVGVGGPESYCHEADGYDYTVSPYAITPPPAAGELPGQEPAEAQQYQPWVPGEDGQPSPGVDTQIFEDPREFLSHLEEYLRQVGGSEEYWLSQIQNHMNGPAKKWWEFKQGSVKNWVEFKKEFLQYSEGTLSREAIQRELDLPQKQGEPLDQFLWRKRDLYQTLYVDADEEEIIQYVVGTLQPKLKRFLRHPLPKTLEQLIQRGMEVQDDLEQAAEPAGPHLPVEDEAETLTPAPNSESVASDRTQPE
notes: Activity-regulated cytoskeleton-associated protein (Arc), human, full length, without any mutations; High-molecular-weight forms and capsids with nucleic acid content (260/280 ratio >1); also called capsid hArc; wild-type full length hArc; source: E. coli BL21 CodonPlus, purified (NiNTA, TEV cleavage, Talon)
As for B9, the binding result in data set [5] is recorded as “binds”.

B10: stargazin (Stg) peptide (peptide)
peptide: Ac-RIPSYRYR-NH2
notes: peptide from the cytosolic tail of stargazin (Stg), auxiliary subunit of AMPA receptors
B10: in data set [6], the Kd amounted to 34.9 µM, the dH was -9.2 kcal/mol and the “stoichiometry N” value was 1.09.

B11: NbArc-B5 (VHH)
VHH: EVQLQESGGGLVEAGGSLRLSCAASGHTSSTVNMAWYRQAPGKEREWVARVFWTDGATYYSDSVKGRFTISRDNTKQRVNLQMNNLKPEDTAIYYCALRAPSSQRLYWGQGTQVTVSS
notes: From NanoTag Technologies, His6-TEV-Nb in pNT1433; also called sdAb B5; source: E. coli BL21(DE3), purified (NiNTA, TEV proteolysis, SEC); not shown: His6, N-terminal, cleaved
As to B11, the “stoichiometry N” value in data set [1] is 1.

B12: MBP-2rNT, N-terminal domain of rat Arc (residues 24-137) with the poly-Ala mutation, fused to His6-MBP (domain or fragment, UniProt Q63053 24-137, looked up)
chain: KPNVILQIGKCRAEMLEHVRRTHRHLLTEVSKQVERELKGLHRSVGKLENNLDGYVPTGDSQRWKKSIKACLCRCQETIANLERWVKREAAAAAAAFYRLERWADRLESMGGKY
notes: Insoluble without the MBP fusion partner; dimer by SAXS; also called NTD; rArc-NTD; source: E. coli BL21(DE3)-RIPL, purified (details in S1 Protocol); not shown: His6, N-terminal, kept; MBP, N-terminal, kept
Consider B12, for which, in data set [7], the “stoichiometry N” value came out at 2.
